This note sets out measurements from US20030199036.

In this data set the target is S. pombe cdc25 tagged with a triple tandem copy of the hemagglutinin epitope (UniProt P06652).

Regarding “Schizosaccharomyces pombe pub1 (untagged)”, the “accumulation of cdc25 higher molecular weight (ubiquitinated) species in mts2 mutants, pub1 wild type (SP 1212) against pub1 disruption (SP 1213), Western blot” value is reported as “We estimate that disruption of pub1 reduces the accumulation of cdc25 higher molecular weight species at least 10 fold”.
